Source: article PMC11234873 (Chemical Science, 2024)

Test: High-throughput protein phase separation
Assay type: physicochemical
Details: 25 μM Hsp90α; 96 LLPS-inducing conditions, sum of averaged grades of 15 subzones

Hsp90α: full-length human Hsp90α (UniProt P07900), N-terminal 6×-His tag, expressed in E. coli
phase separation score (PPS score): 3.1
